Reference: the supplement of paper PMC10724198
± gives the standard deviation of the averaged measurements.

Tested on: Saccharomyces cerevisiae
Experiment: protein stability index of tFT-peptide fusion (C-terminal peptide) (PSI (0-1 scale)); higher = more stable (slower turnover)
Details: genetic background: wild type; temperature: 30 C
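Also: PSI is a weighted mean of sequencing reads over stability bins, variants kept only with over 10 reads, mCherry proximal and sfGFP distal, peptide attached via GGGS linker.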

Row | Sequence | protein stability index
1 | SGWSVGVMGESG | 0.627 ± 0.092
2 | SGYKVYNSVHIL | 0.602 ± 0.026
3 | SHASTPSSRVIP | 0.716 ± 0.01
4 | SHICSFLGICHA | 0.576 ± 0.031
5 | SHIPRNLSPFSS | 0.754 ± 0.056
6 | SHLAYVKWYIGD | 0.6305 ± 0.0042
7 | SHPAPGSPTSPS | 0.67064 ± 0.00027
8 | SHPPFPFAPPPR | 0.674 ± 0.031
9 | SHPPPPPHTPPS | 0.736 ± 0.02
10 | SHRTRPSQTPTQ | 0.643 ± 0.05
11 | SHSPPSPPLPPP | 0.6773 ± 0.0042
12 | SHTIVPNPLKLV | 0.576 ± 0.019
13 | SHTSPSTPPPSP | 0.681 ± 0.0085
14 | SICLLSAALPPP | 0.708 ± 0.029
15 | SIFSFCSNTWFL | 0.747 ± 0.029
16 | SIGACGEVTFGC | 0.7083 ± 0.00078
17 | SIIGRKVNGVSN | 0.711 ± 0.0089
18 | SIIIPATCEYLV | 0.603 ± 0.013
19 | SIKGLVRSIALN | 0.638 ± 0.0064
20 | SILFMYPARNAP | 0.7177 ± 0.0028
21 | SILRLRSVVPAE | 0.6457 ± 0.0027
22 | SIPLIMPLSDYV | 0.675 ± 0.015
23 | SIVGGVVRVLCG | 0.603 ± 0.048

Row | Sequence | protein stability index
24 | SKGARQRQPPDG | 0.5983 ± 0.0041
25 | SKGFVIMRAACF | 0.572 ± 0.018
26 | SKGLPADSQQPF | 0.729 ± 0.054
27 | SKIKLYKIKKKK | 0.7206 ± 0.0054
28 | SKKARIYIKKRR | 0.683 ± 0.053
29 | SKKLRRNKYRNG | 0.6871 ± 0.0039
30 | SKKRKRNKKKGE | 0.74 ± 0.098
31 | SKQKSKNYEAFK | 0.721 ± 0.039
32 | SKRSYEEGNIVY | 0.672 ± 0.028
33 | SKRYREKIVRNK | 0.677 ± 0.04
34 | SKTEKELSNREF | 0.659 ± 0.025
35 | SLAFIRFPSPSP | 0.668 ± 0.0083
36 | SLAFLPPSLSSS | 0.713 ± 0.056
37 | SLAPPVPPPPLH | 0.67 ± 0.026
38 | SLFNADPYGFNL | 0.711 ± 0.03
39 | SLFRVAFLYVQV | 0.5406 ± 0.0018
40 | SLGGGGGLAWWL | 0.795 ± 0.26
41 | SLGWGRVNVCGV | 0.666 ± 0.0031
42 | SLHSSQYTRHSG | 0.673 ± 0.024
43 | SLHVSSLPYALQ | 0.662 ± 0.082
44 | SLKHRSSLRQLI | 0.519 ± 0.01
45 | SLKIPSPLSPVL | 0.699 ± 0.028
46 | SLLCDQSSLGQC | 0.747 ± 0.11

Row | Sequence | protein stability index
47 | SLLELSPPRSPP | 0.681 ± 0.03
48 | SLLFLRFLFSTP | 0.705 ± 0.0086
49 | SLLLPLPLPVRL | 0.582 ± 0.0086
50 | SLLPCAPHPRPV | 0.662 ± 0.074
51 | SLPHHRPPHPRT | 0.752 ± 0.17
52 | SLPKSSLFAPHL | 0.715 ± 0.023
53 | SLPLPPPSPPHV | 0.676 ± 0.018
54 | SLPPSPPPPSLP | 0.715 ± 0.028
55 | SLPRPYPQKVTG | 0.621 ± 0.015
56 | SLRLHCSRQRRP | 0.649 ± 0.048
57 | SLRLPPPTDTDS | 0.681 ± 0.03
58 | SLRQEFDAIFVG | 0.604 ± 0.039
59 | SLRSGFVSHFSP | 0.689 ± 0.11
60 | SLRSIAPLGSRC | 0.832 ± 0.19
61 | SLSAQTISDLSM | 0.68 ± 0.049
62 | SLSDKRATKGED | 0.65 ± 0.018
63 | SLSHPSPPRTLP | 0.697 ± 0.007
64 | SLSIWSTSPPAA | 0.691 ± 0.0086
65 | SLSLRPPPYPPP | 0.578 ± 0.0096
66 | SLSPLPSPPPPP | 0.7 ± 0.0087
67 | SLSPPPPAPRAP | 0.663 ± 0.02
68 | SLSPTPVAPPLN | 0.678 ± 0.009
69 | SLSRPASPPPHH | 0.674 ± 0.12

Row | Sequence | protein stability index
70 | SLTLPAPPLSPC | 0.712 ± 0.11
71 | SLTYTSVAKAEV | 0.6149 ± 0.0034
72 | SLVVPVSAAQYV | 0.653 ± 0.028
73 | SLVWVGGRRWPI | 0.73 ± 0.023
74 | SMARVWLVWRWK | 0.673 ± 0.035
75 | SMFLGLCGSIYG | 0.699 ± 0.056
76 | SMMMIISQRKTR | 0.787 ± 0.1
77 | SMPKMGISGVIY | 0.617 ± 0.051
78 | SNDTRKNKKRRT | 0.797 ± 0.084
79 | SNGYMFRRDRYV | 0.686 ± 0.028
80 | SNLYNNQEQDHT | 0.723 ± 0.058
81 | SNPSTNPCWKKK | 0.643 ± 0.041
82 | SNRALHATPCPR | 0.9 ± 0.038
83 | SNRCGRGMRVFA | 0.658 ± 0.065
84 | SNVHSYPEIRPG | 0.681 ± 0.01
85 | SPAPLALSLRPP | 0.668 ± 0.023
86 | SPAPPVPLHPPH | 0.714 ± 0.089
87 | SPAPRAPRGICL | 0.706 ± 0.017
88 | SPCPPPPPSPPS | 0.6637 ± 0.0013
89 | SPETSSILLLSF | 0.612 ± 0.0035
90 | SPGLQPVACPSF | 0.639 ± 0.019
91 | SPGRPGLGGGAW | 0.776 ± 0.26
92 | SPGRPSSPPRPR | 0.744 ± 0.029

Row | Sequence | protein stability index
93 | SPGVFQQRHHTY | 0.665 ± 0.087
94 | SPHSRAPPRFPP | 0.726 ± 0.14
95 | SPILRFPPPCFL | 0.67 ± 0.019
96 | SPKGHGEGGGSK | 0.6779 ± 0.00078
97 | SPKPPPHPPPPA | 0.535 ± 0.0095
98 | SPLASVLPHAAL | 0.707 ± 0.049
99 | SPLFLPPPVPPP | 0.599 ± 0.039
100 | SPLFPPIPSSLS | 0.7278 ± 0.00076
101 | SPLGAADTRQEP | 0.687 ± 0.025
102 | SPLLRSRPPPPI | 0.749 ± 0.016
103 | SPLPPHPPLPLL | 0.6395 ± 0.002
104 | SPLPPPSPRPSL | 0.681 ± 0.039
105 | SPLPPRSPPRPA | 0.699 ± 0.01
106 | SPLSPLPPALSL | 0.695 ± 0.046
107 | SPLSPPPPRLSA | 0.723 ± 0.061
108 | SPPCPPPLAPPP | 0.758 ± 0.044
109 | SPPFPRPCPFTP | 0.644 ± 0.086
110 | SPPHPPPLLLPP | 0.655 ± 0.066
111 | SPPHSPPWPLSL | 0.691 ± 0.052
112 | SPPLGFAPPSRS | 0.853 ± 0.046
113 | SPPLHTFSLPFY | 0.669 ± 0.021
114 | SPPLLPGVLSES | 0.645 ± 0.055
115 | SPPLPKFPPAIP | 0.689 ± 0.021

Row | Sequence | protein stability index
116 | SPPLRPLSDLTP | 0.692 ± 0.085
117 | SPPPAPPPISPS | 0.708 ± 0.15
118 | SPPPFFSPSLPP | 0.65 ± 0.09
119 | SPPPFPPSPSPP | 0.715 ± 0.039
120 | SPPPGLSVILLH | 0.6 ± 0.054
121 | SPPPHPVHPVPL | 0.611 ± 0.019
122 | SPPPISIYPPFR | 0.668 ± 0.024
123 | SPPPLPLPPPAP | 0.695 ± 0.013
124 | SPPPNPRRPVPL | 0.6916 ± 0.0023
125 | SPPPPLPPPLPP | 0.52453 ± 0.00047
126 | SPPPPPPPPFPL | 0.672 ± 0.033
127 | SPPPPRLPSHPS | 0.613 ± 0.14
128 | SPPPPSCRHSPL | 0.741 ± 0.011
129 | SPPPSPPTVLPI | 0.683 ± 0.022
130 | SPPPSSPPPFPR | 0.639 ± 0.026
131 | SPPPTDPPQPPL | 0.7035 ± 0.0018
132 | SPPRPPAPPLLP | 0.676 ± 0.011
133 | SPPRPPPSPTPL | 0.771 ± 0.033
134 | SPPRPPVLSPGH | 0.68 ± 0.085
135 | SPPSATTLRAPS | 0.641 ± 0.037
136 | SPPSFFRATRSN | 0.644 ± 0.096
137 | SPPSFLSFFCAP | 0.755 ± 0.14
138 | SPPSLPPLPPRF | 0.702 ± 0.016

Row | Sequence | protein stability index
139 | SPPSPLRPPPPS | 0.7 ± 0.01
140 | SPPSPRLPPPLL | 0.77 ± 0.046
141 | SPPTPPLAPLSP | 0.656 ± 0.042
142 | SPPTPPPSPPFL | 0.523 ± 0.012
143 | SPPTPPTSICPS | 0.705 ± 0.03
144 | SPRHAGSSAWRP | 0.674 ± 0.064
145 | SPRPDSVLLRSP | 0.723 ± 0.025
146 | SPRPLPLPLPTS | 0.682 ± 0.1
147 | SPRSLLTPHPHM | 0.686 ± 0.041
148 | SPRSSPLPSPPP | 0.766 ± 0.026
149 | SPSFDLLFSPFD | 0.778 ± 0.01
150 | SPSPAPPTRSPS | 0.696 ± 0.023
151 | SPSPRLSFFLPS | 0.727 ± 0.026
152 | SPSRVSYFFFFS | 0.641 ± 0.059
153 | SPSSTSPAPFPL | 0.672 ± 0.14
154 | SPTLNRSLPVPS | 0.654 ± 0.045
155 | SPTPINALRPPT | 0.695 ± 0.032
156 | SPTPLLPLASSP | 0.695 ± 0.052
157 | SPTPPPPAPPPP | 0.645 ± 0.044
158 | SPTPPPPSPLAP | 0.726 ± 0.059
159 | SPTRSPPRPLPP | 0.649 ± 0.031
160 | SPTSLPLSMPTR | 0.724 ± 0.1
